Assay results as given in article PMC7320145, “Substrate Channeling via a Transient Protein-Protein Complex: The case of D-Glyceraldehyde-3-Phosphate Dehydrogenase and L-Lactate Dehydrogenase” (Scientific Reports, 2020).

Legend:
[1] = tested on: NC(=O)C1=CN([C@@H]2O[C@H](COP(=O)(O)OP(=O)(O)OC[C@H]3O[C@@H](n4cnc5c(N)ncnc54)[C@H](O)[C@@H]3O)[C@@H](O)[C@H]2O)C=CC1; assay: purified protein; assay type: biochemical, Sus scrofa; details: free NADH, 630 μM pyruvate, 50 mM Tris/HCl pH 7.4, 25 °C
[2] = tested on: NC(=O)C1=CN([C@@H]2O[C@H](COP(=O)(O)OP(=O)(O)OC[C@H]3O[C@@H](n4cnc5c(N)ncnc54)[C@H](O)[C@@H]3O)[C@@H](O)[C@H]2O)C=CC1; assay: purified protein; details: free NADH, 630 μM pyruvate, 50 mM Tris/HCl pH 7.4, 25 °C

phLDH (porcine heart LDH) (Sus scrofa), sequence (chain, as listed by the source): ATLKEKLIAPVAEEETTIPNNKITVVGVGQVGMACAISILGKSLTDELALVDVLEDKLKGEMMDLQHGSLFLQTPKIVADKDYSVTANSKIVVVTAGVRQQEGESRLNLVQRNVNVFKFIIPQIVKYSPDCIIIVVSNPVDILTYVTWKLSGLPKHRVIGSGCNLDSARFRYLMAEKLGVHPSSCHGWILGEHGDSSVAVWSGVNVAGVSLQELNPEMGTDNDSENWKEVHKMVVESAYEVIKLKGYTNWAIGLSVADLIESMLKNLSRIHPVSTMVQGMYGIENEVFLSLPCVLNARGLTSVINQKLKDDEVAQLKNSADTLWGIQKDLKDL

Substance	Km [1]	Km [2]
phLDH (porcine heart LDH) (Sus scrofa)	7.8 ± 0.9 µM	
rmLDH (rabbit muscle LDH) (Oryctolagus cuniculus)		4.4 ± 0.4 µM
